B1: Pseudomonas putida WCS358 PupR cytoplasmic anti-sigma domain (PupR-ASD), wild type (domain or fragment)
chain: GAMGMNGQGATSIPGEVAEQAMHWHLELQEPAVSAATLAACMSWRQAHPLHEHAWQRTQVFAQRLREMRSPGQRPLAHAALRPQQS
B2: PupR-ASD L22D (domain or fragment, Pseudomonas putida WCS358)
chain: GAMGMNGQGATSIPGEVAEQAMHWHDELQEPAVSAATLAACMSWRQAHPLHEHAWQRTQVFAQRLREMRSPGQRPLAHAALRPQQS
B3: PupR-ASD M18D (domain or fragment, Pseudomonas putida WCS358)
chain: GAMGMNGQGATSIPGEVAEQADHWHLELQEPAVSAATLAACMSWRQAHPLHEHAWQRTQVFAQRLREMRSPGQRPLAHAALRPQQS
B4: PupR-ASD R53D (domain or fragment, Pseudomonas putida WCS358)
chain: GAMGMNGQGATSIPGEVAEQAMHWHLELQEPAVSAATLAACMSWRQAHPLHEHAWQDTQVFAQRLREMRSPGQRPLAHAALRPQQS
B5: PupR-ASD M38D (domain or fragment, Pseudomonas putida WCS358)
chain: GAMGMNGQGATSIPGEVAEQAMHWHLELQEPAVSAATLAACDSWRQAHPLHEHAWQRTQVFAQRLREMRSPGQRPLAHAALRPQQS
B6: PupR-ASD L61D (domain or fragment, Pseudomonas putida WCS358)
chain: GAMGMNGQGATSIPGEVAEQAMHWHLELQEPAVSAATLAACMSWRQAHPLHEHAWQRTQVFAQRDREMRSPGQRPLAHAALRPQQS
B7: PupR-ASD F57D (domain or fragment, Pseudomonas putida WCS358)
chain: GAMGMNGQGATSIPGEVAEQAMHWHLELQEPAVSAATLAACMSWRQAHPLHEHAWQRTQVDAQRLREMRSPGQRPLAHAALRPQQS
B8: PupR-ASD Q42D (domain or fragment, Pseudomonas putida WCS358)
chain: GAMGMNGQGATSIPGEVAEQAMHWHLELQEPAVSAATLAACMSWRDAHPLHEHAWQRTQVFAQRLREMRSPGQRPLAHAALRPQQS
B9: PupR-ASD A35D (domain or fragment, Pseudomonas putida WCS358)
chain: GAMGMNGQGATSIPGEVAEQAMHWHLELQEPAVSAATLDACMSWRQAHPLHEHAWQRTQVFAQRLREMRSPGQRPLAHAALRPQQS

Biological target: the molecule itself
Experiment: AUC

Compared with B1, B2 is higher in Kd: 10.2 µM for the first, greater than 200 µM for the second.

Going from B3 to B4, the Kd rises from 226 µM to 562 µM (2.5-fold). The first binds more tightly here.

Compared with B5, B6 is higher in Kd: 11.6 µM for the first, greater than 500 µM for the second.

Compared with B7, B8 is lower in Kd: greater than 200 µM for the first, 18.2 µM for the second.

Work on B9 yielded a Kd of 13.5 µM.

Biological target: the molecule itself
Experiment: SEC

B1 was tested, and the “stoichiometry N” value was 2.
